Experiment [1] deals with T1, VEGF-121-His (inhouse production) (human, UniProt P15692 207-395).
T1 construct: also called hVEGF-A121; VEGF-A121; not shown: His tag
T1 sequence: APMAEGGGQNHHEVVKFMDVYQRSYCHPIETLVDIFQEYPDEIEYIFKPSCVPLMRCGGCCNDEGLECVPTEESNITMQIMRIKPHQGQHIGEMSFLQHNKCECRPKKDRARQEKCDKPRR
Kind of experiment: inhibition ELISA: antibody pre-incubated with 0.34 nM VEGF-121-His, binding to coated biotinylated VEGF-R1 detected. Here is the method: 384 well streptavidin plates (Nunc/Microcoat #11974998001) were coated with 0.25 μg/mlbiotinylated VEGF-R1 or […] biotinylated VEGF-R2 (inhouse production, each 25 μl/well in DPBS (1×) (PAN, #PO4-36500)). Plates were incubated for 1 h at room temperature. […] This pre-incubation step was carried out in 384 well PP plates (Weidmann medical technology, #23490-101) in 1×OSEP buffer (bidest water, 10×, Roche, #11 666 789 001+0.5% Bovine Serum Albumin Fraction V, fatty acid free, Roche, #10 735 086 001+0.05% Tween 20). Plates were incubated for 1 h at room temperature. After washing VEGF-R1/VEGF-R2 coated streptavidin plates 3 times with 90 μl/well PBST-buffer (bidest water, 10×PBS Roche #11666789001+0.1% Tween 20), 25 μl of samples from the VEGF-antibody pre-incubation plate were transferred to coated strepavidin plates which were subsequently incubated for 1 h at room temperature. After washing 3 times with 90 μl/well PBST-buffer, 25 μl/well detection antibody (anti His POD, Bethyl, #A190-114P, 1:12000) in 1×OSEP was added. After incubation for 1 h at room temperature plates were washed 3 times with 90 μl PBST-buffer. 25 μl TMB (Roche, #11 835 033 001) was added to all wells simultaneously. After 10 min incubation at room temperature, signals were detected at 370 nm/492 nm on a Tecan Safire 2 Reader. […]
For orientation: An ELISA detects its analyte on a solid surface through an enzyme-linked reagent.

Experiment [2] concerns the target T1, VEGF-121-His (inhouse production). The experiment is described as follows: SPR, hVEGF-A121 captured by anti-His antibody, Fab as analyte, 37 C. As for the experimental part: (§1) An anti-His capturing antibody (GE Healthcare 28995056) was immobilized to a Series S Sensor Chip C1 (GE Healthcare 29104990) using standard amine coupling chemistry resulting in a surface densitiy of 500-1000 resonance units (RU). As running and dilution buffer, HBS-P+(10 mM HEPES, 150 mM NaCl pH 7.4, 0.05% Surfactant P20) was used, the measurement temperature was set to 25° C. and 37° C., respectively. hVEGF-A121 was captured to the surface with resulting capture levels ranging from 5 to 35 RU. Dilution series of anti-VEGF antibodies (0.37-30 nM) were injected for 120 s, dissociation was monitored for at least 600 s at a flow rate of 30 μl/min. The surface was regenerated by injecting 10 mM Glycine pH 1.5 for 60 s. Bulk refractive index differences were corrected by subtracting blank injections and by subtracting the response obtained from the control flow cell without captured hVEGF-A121. Rate constants were calculated using the Langmuir 1:1 binding model within the Biacore Evaluation software.
(§2) The affinity of the antibodies was determined by SPR using the same methods as described in Example 1.

Experiment [3] shares this target. Kind of experiment: SPR, hVEGF-A121 captured by anti-His antibody, Fab as analyte, 25 C; 25 C; Table 3 (later example). Here is the method:
as §1, §2
(In general: SPR reads the build-up and loss of mass on a sensor chip optically.)

The target is the same in experiment [4]. Kind of experiment: SPR (Biacore), hVEGF-A121 captured by anti-His antibody on C1 chip, Fab as analyte, 1:1 Langmuir model, 25 C; 25 C; Example 1. Here is the method:
VEGF-binding of antibody VEGF-0089 Fab fragment was assessed by surface plasmon resonance (SPR) as described below.
as §1

For experiment [5] the target is unchanged. The experiment is described as follows: SPR, hVEGF-A121 captured by anti-His antibody, Fab as analyte, 25 C. As for the experimental part: as §1, §2

B1: VEGF-P1AD8674 Fab (Fab, V domains shown)
VH: EVQLVESGGGLVQPGGSLRLSCAASGFTFTNYAMTWVRQAPGKGLEWVSSIGNGGGIYTYYADSVKGRFTISRNNAENTLYLQMNSLRAEDTAVYYCAKGDNLFDSWGPGTLVTVSS
VL: DIQMTQSPASLSASVGDRVTITCRASQSIYSSLNWYQQKPGKAPKLLIYASTLQSGVPSRFSGSASGTDFTLTISSLQPEDVATYYCQQYQNFPRTFGQGTKLEIKR
notes: Variant of VEGF-0089 with D72N, S74A, K75E (Kabat) in H-FR3
Regarding B1, in experiment [1], the binding result was “binds”.

B2: VEGF-0089 Fab fragment (Fab, V domains shown)
VH: EVQLVESGGGLVQPGGSLRLSCAASGFTFTNYAMTWVRQAPGKGLEWVSSIGNGGGIYTYYADSVKGRFTISRDNSKNTLYLQMNSLRAEDTAVYYCAKGDNLFDSWGPGTLVTVSS
VL: DIQMTQSPASLSASVGDRVTITCRASQSIYSSLNWYQQKPGKAPKLLIYASTLQSGVPSRFSGSASGTDFTLTISSLQPEDVATYYCQQYQNFPRTFGQGTKLEIKR
notes: Parent antibody; also called antibody VEGF-0089
For orientation: Kd means the equilibrium constant for the complex coming apart. High values mean weaker binding, low ones tighter binding. B2: the Kd in experiment [2] came to 0.11 nM; in experiment [3], 0.143 nM; in experiment [4] it was 0.134 nM.

B3: VEGF-0112 Fab (Fab, V domains shown)
VH: EVQLVESGGGLVQPGGSLRLSCAASGFTFTNYAMTWVRQAPGKGLEWVSSIGSGGGIYTYYADSVKGRFTISRDNSKNTLYLQMNSLRAEDTAVYYCAKGDNLFDSWGPGTLVTVSS
VL: DIQMTQSPASLSASVGDRVTITCRASQSIYSSLNWYQQKPGKAPKLLIYASTLQSGVPSRFSGSASGTDFTLTISSLQPEDVATYYCQQYQNFPRTFGQGTKLEIKR
notes: Variant of VEGF-0089 with N52aS (Kabat) in H-CDR2
On to B3, for which the Kd in experiment [5] turned out to be 0.074 nM; in experiment [2], 0.085 nM.

The values are drawn from patent US20220002397A1 (Hoffmann-La Roche, published 2022).
